The values below come from US20160159910A1 (Genentech, published 2016).

In assay [1] the target is T1, human B7-H4 (human, UniProt Q7Z7D3 29-282).
T1 construct: On stably transfected 293 cells (recombinant) or on MX-1 / SKBR3 tumor cells (endogenous); the cell is named under assay; also called huB7-H4; hB7-H4
T1 sequence: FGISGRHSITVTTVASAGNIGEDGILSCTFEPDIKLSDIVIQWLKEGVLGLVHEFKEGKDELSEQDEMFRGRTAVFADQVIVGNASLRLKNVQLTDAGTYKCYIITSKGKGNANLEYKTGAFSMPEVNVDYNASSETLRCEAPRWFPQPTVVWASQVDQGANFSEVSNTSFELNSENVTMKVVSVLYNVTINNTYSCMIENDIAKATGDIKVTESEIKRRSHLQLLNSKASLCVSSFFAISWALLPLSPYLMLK
As to the kind of experiment: Scatchard analysis, 125I-antibody radioligand cell binding on MX-1 tumor cells. The procedure: (§1) Competition assay mixtures of 50 μL volume containing a fixed concentration of [I¹²⁵] labeled antibody and decreasing concentrations of serially diluted, unlabeled antibody were placed into 96-well plates. […] Cells were detached from the flask using Sigma Cell Dissociation Solution and were washed with binding buffer, which consisted of Dulbecco's Modified Eagle Medium (DMEM) with 1% bovine serum albumin (BSA), […] and 0.1% sodium azide. The washed cells were added to the 96 well plates at a density of 100,000 cells in 0.2 mL of binding buffer. The final concentration of the [I¹²⁵] labeled antibody in each well was ˜250 pM. The final concentration of the unlabeled antibody in the competition assay ranged from 1000 nM through ten 2-fold dilution steps to a 0 nM buffer-only assay. Competition assays were carried out in triplicate. Competition assays were incubated for 2 hours at room temperature. After the 2-hour incubation, the competition assays were transferred to a Millipore Multiscreen filter plate (Billerica, Mass.) and washed 4 times with binding buffer to separate the free from bound [I¹²⁵] labeled antibody. The filters were counted on a Wallac Wizard 1470 gamma counter (PerkinElmer Life and Analytical Sciences Inc.; Wellesley, Mass.). The binding data was evaluated using NewLigand software (Genentech), which uses the fitting algorithm of Munson and Robard to determine the binding affinity of the antibody (Munson and Robard 1980).

Assay [2] concerns the target T2, human B7-H4 S114A glycosylation mutant (human, UniProt Q7Z7D3 29-282).
T2 construct: Full-length human B7-H4 membrane construct with S114 changed to alanine to prevent N-linked glycosylation at N112-S114; transiently expressed on 293 cells; also called mutated S114A human B7-H4; recombinant human B7-H4 S114A
T2 sequence: T1 sequence with S86A
Description: FACS on 293 cells transfected with S114A human B7-H4 (glycosylation independence).

The target in assay [3] is T1, human B7-H4. As to the kind of experiment: Scatchard analysis, 125I-antibody radioligand cell binding on stably transfected 293 cells. The procedure: as §1
Assay [4] concerns the target T3, cynomolgus monkey B7-H4 (cynomolgus monkey, UniProt Q7Z7D3 29-282 (human entry)).
T3 construct: On stably transfected 293 cells; also called cyno B7-H4; recombinant cynomolgus monkey B7-H4
T3 chain: T1 sequence with L49I, F238L, S248A
The assay is described as above. As for the experimental part:
as §1

Assay [5] concerns the target T4, mouse B7-H4 (mouse, UniProt Q7TSP5 29-283).
T4 construct: On stably transfected 293 cells; also called muB7-H4; recombinant mouse B7-H4
T4 sequence: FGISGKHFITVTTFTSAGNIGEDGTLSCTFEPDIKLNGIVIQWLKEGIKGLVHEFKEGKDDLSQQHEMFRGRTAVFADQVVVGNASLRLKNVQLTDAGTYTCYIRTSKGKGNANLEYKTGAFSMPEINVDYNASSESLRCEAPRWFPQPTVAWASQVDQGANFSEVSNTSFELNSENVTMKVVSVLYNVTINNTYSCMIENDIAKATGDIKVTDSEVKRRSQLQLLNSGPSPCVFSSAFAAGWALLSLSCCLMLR
The assay is described as above. As for the experimental part: as §1

Assay [6] concerns the target T5, rat B7-H4 (rat, UniProt Q501W4 29-282).
T5 construct: On stably transfected 293 cells; also called recombinant rat B7-H4
T5 sequence: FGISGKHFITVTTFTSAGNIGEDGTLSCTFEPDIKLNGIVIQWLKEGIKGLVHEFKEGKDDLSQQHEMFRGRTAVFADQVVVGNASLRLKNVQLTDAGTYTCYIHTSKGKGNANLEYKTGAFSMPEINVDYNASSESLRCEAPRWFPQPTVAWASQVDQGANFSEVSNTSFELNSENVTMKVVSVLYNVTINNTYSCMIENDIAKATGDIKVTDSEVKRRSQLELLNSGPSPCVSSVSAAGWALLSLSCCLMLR
The description is as above. As for the experimental part:
as §1

Assay [7] deals with T6, soluble B7-H4 (Ig-V; G28-V157)-Fc fusion protein (human, UniProt Q7Z7D3 28-157).
T6 construct: Engineered soluble protein; also called B7-H4-(Ig-V)-hIgG1 Fc fusion protein; soluble B7-H4 IgV-Fc fusion protein; not shown: human IgG1 Fc
T6 sequence: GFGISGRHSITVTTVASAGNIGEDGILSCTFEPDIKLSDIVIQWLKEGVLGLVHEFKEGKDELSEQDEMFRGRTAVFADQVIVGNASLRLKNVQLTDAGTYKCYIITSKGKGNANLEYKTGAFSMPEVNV
Description: FACS competition: soluble B7-H4 (Ig-V)-Fc against dye-labelled 22C10 on 293 cells expressing human B7-H4.

Assay [8] deals with T4, mouse B7-H4. Description: FACS titration on 293 cells expressing recombinant mouse B7-H4 (panel '293-mouse B7-H4', upper block), geometric mean fluorescence. The procedure:
(§2) The fluorescent signal was acquired with a BD FACS Calibur and EC₅₀ values were determined with the Graph Pad program Prism 4.

The target of assay [9] is T1, human B7-H4. Description: FACS titration on MX-1 tumor cells, endogenous human B7-H4 (panel 'MX-1 tumor cell line', upper block), geometric mean fluorescence. The procedure: as §2
For assay [10], the target named is T3, cynomolgus monkey B7-H4. As to the kind of experiment: FACS titration on 293 cells expressing recombinant cynomolgus B7-H4 (panel '293-cyno B7-H4', upper block), geometric mean fluorescence. As for the experimental part:
as §2

For assay [11], the target named is T1, human B7-H4. Description: FACS titration on 293 cells expressing recombinant human B7-H4 (panel '293-human B7-H4', upper block), Dylight-650 goat anti-human IgG, geometric mean fluorescence. As for the experimental part: as §2
Assay [12] has as its target T7, B7-H4 (IgV; G28-F150 including spacer S151-V157)-irrelevant (Ig-C) chimeric membrane protein (construct-88) (human, UniProt Q7Z7D3 28-157).
T7 construct: also called B7-H4 (Ig-V):MolX (Ig-C, TM, CD); Ig-chimera expressing the B7-H4 Ig-V domain; not shown: Ig-C, transmembrane and cytoplasmic parts of the unnamed irrelevant protein (MolX) that display the domain on the cell; N-terminal Herpes-gD tag
T7 sequence: T6 sequence
Description: FACS on 293 cells expressing the Ig-chimera with the B7-H4 Ig-V domain. The source says: Briefly, 293 cells were transiently transfected with constructs 88 & 88B using polyfect.

The target in assay [13] is T1, human B7-H4. Description: Scatchard analysis, radioligand cell binding on MX-1 cells (endogenous human B7-H4). As for the experimental part:
as §1, with “After the 2-hour incubation, the competition assays were transferred to a Millipore Multiscreen filter plate (Billerica, Mass.) and washed 4 times with binding buffer to separate the free from bound [I¹²⁵] labeled antibody.” left out

The target in assay [14] is T1, human B7-H4. As to the kind of experiment: Scatchard analysis, radioligand cell binding on 293 cells expressing recombinant B7-H4. As for the experimental part: as §1
Assay [15] addresses T3, cynomolgus monkey B7-H4. The description is as above. As for the experimental part:
as §1

In assay [16] the target is T4, mouse B7-H4. Described as above. The procedure: as §1
Assay [17] has as its target T5, rat B7-H4. Described as above. The procedure:
as §1

Residue numbers refer to the chain shown, from its start.

B1: chimeric antibody ch22C10 (antibody, human IgG1, V domains shown)
VH: QVQLQQPGAELVKPGTSVKLSCKASGYTFTNFWIHWVIQRPGQGLEWIGEIDPSDSYTNYNQKFKGKATLTVDKSSNTAYMQLSSLTSEDSAVYYCSREITTVDYWGQGTTLTVSS
VL: QIVLTQSPTIMSASPGEKVTLTCSATSSISYMHWYQQKPGTSPKGWIYDTSKLAHGVPARFSGSGSGTSYSLTISSMEAEDAATYYCHQRRSYPFTFGSGTKLEIK
notes: also called ch2210; parental 22C10 antibody
By Kd is commonly meant the concentration at which binding is half-saturated. One may read the EC50 as the concentration needed to bring the measured effect to its halfway point. With B1, the Kd in [1] was found to be 4.9 nM; in assay [3], 6.6 nM; in assay [4], 4.6 nM; in assay [5], 18.3 nM; in assay [6], 5.7 nM. Also, the “fold binding over the isotype control” value in [2] was 100 fold. For the same molecule, in assay [7], the binding result was “no binding”. The half-maximal effective concentration (EC50) was found to be 0.66 µg/mL in [8], 0.35 µg/mL in assay [9], 0.41 µg/mL in [10] and 1.2 µg/mL in assay [11].

B2: hu1D11.v1.9 varD (antibody)
heavy: not shown
light: DIQMTQSPSSLSASVGDRVTITCKASQGFNKYVAWYQQKPGKAPKLLIYYTSTLQPGVPSRFSGSGSGRDYTLTISSLQPEDFATYYCLQYGDLLYAFGQGTKVEIKRTVAAPSVFIFPPSDEQLKSGTASVVCLLNNFYPREAKVQWKVDNALQSGNSQESVTEQDSKDSTYSLSSTLTLSKADYEKHKVYACEVTHQGLSSPVTKSFNRGEC
notes: IgG1 / kappa; also called h1D11v1.9_VarD; h1D11v1.9varD
Turning to B2, in [12], the “fold binding compared to mock transfected 293 cells” value is ~44 fold. Besides, the equilibrium dissociation constant (Kd) in [13] was found to be 7.4 nM; in [14], 2.9 nM; in assay [15], 3.7 nM; in assay [16] it was 5 nM; in assay [17], 2.7 nM.
